# Results taken from US20230257479A1 (Genmab, published 2023).
# T1: full length human 5T4 (SEQ ID NO: 1) on cells (human, UniProt Q13641 32-420)
# T1 construct: Uniprot Q13641; residues 1-31 are the signal peptide; Used both for transfected HEK-293 cells and for 5T4-expressing human tumor cell lines
# T1 sequence: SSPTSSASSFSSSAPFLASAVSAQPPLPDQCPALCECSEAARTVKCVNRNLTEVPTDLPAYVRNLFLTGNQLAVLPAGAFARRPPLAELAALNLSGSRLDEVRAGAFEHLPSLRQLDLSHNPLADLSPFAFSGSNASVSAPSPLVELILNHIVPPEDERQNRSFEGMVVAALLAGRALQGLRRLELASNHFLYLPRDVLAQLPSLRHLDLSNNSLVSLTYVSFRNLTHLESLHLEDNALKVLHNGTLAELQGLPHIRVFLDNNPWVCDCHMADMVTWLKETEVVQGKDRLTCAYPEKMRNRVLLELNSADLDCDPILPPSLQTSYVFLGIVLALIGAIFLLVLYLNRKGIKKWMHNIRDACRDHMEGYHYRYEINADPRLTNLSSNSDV
# T2: full length cynomolgus monkey 5T4 on transfected HEK-293 cells (cynomolgus monkey, UniProt Q4R8Y9 35-420)
# T2 construct: Uniprot Q4R8Y9; residues 1-34 are the signal peptide; also called cynomolgus 5T4
# T2 sequence: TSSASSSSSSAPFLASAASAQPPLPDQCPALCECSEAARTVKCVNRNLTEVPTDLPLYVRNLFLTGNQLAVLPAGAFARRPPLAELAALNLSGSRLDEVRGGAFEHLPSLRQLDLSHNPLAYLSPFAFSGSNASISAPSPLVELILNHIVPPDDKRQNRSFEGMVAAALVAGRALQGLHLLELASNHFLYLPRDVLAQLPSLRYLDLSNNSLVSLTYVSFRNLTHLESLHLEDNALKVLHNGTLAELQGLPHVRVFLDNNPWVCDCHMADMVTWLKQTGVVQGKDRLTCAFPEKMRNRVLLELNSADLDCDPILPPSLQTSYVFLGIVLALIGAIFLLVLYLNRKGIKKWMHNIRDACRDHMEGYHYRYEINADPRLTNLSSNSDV
# T3: human 5T4ECDHis (mature protein of SEQ ID NO: 99) (human, UniProt Q13641 32-355)
# T3 construct: ECD of human 5T4 (aa 1-355 of Uniprot Q13641) with C-terminal His tag; residues 1-31 are the signal peptide; also called ECD of human 5T4 with a C-terminal His tag
# T3 sequence: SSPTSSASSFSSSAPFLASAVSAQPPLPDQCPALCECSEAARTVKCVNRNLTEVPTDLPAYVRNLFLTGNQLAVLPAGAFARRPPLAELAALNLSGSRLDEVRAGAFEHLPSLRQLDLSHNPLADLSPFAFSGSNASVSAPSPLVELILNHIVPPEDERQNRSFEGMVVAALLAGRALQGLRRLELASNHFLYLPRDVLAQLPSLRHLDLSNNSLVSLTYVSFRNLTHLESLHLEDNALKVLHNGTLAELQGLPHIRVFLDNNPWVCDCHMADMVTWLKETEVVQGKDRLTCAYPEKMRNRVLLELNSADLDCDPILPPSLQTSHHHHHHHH
# B1: bsIgG1-huCD3-H101G-FEALx5T4-A3-FEAR (bispecific antibody)
# heavy: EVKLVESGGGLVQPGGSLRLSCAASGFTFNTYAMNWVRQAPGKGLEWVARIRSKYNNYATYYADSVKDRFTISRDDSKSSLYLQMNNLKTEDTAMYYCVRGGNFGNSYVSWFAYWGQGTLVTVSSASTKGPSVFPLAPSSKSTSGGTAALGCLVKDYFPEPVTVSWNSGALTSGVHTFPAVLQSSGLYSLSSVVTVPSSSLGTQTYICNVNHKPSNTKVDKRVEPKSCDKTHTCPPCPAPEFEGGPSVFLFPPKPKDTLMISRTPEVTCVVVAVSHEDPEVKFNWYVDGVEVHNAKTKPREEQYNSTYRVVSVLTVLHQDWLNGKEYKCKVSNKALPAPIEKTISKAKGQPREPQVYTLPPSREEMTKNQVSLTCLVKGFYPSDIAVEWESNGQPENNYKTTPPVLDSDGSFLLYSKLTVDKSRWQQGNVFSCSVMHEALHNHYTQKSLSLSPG
# light: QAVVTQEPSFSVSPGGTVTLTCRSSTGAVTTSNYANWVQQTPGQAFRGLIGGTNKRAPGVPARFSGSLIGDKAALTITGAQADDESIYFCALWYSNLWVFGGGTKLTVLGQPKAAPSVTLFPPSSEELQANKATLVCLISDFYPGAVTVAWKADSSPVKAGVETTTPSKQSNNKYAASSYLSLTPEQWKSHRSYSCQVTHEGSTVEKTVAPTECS
# VH: EVQLVESGGGLVQPKGSLKLSCAASGFTFNTYAMNWVRQAPGKGLEWVARIRSKSNNYATYYADSVKDRFTISRDDSQSMLYLQMNNLKTEDTAMYYCVRQWDYDVRAMNYWGQGTSVTVSS
# VL: DIVMTQSHIFMSTSVGDRVSITCKASQDVDTAVAWYQQKPGQSPKLLIYWASTRLTGVPDRFTGSGSGTDFTLTISNVQSEDLADYFCQQYSSYPYTFGGGTKLEIK
# notes: Fab-arm exchange product
# B2: IgG1-5T4-A3-FEAR (antibody, V domains shown)
# VH: B1 VH
# VL: B1 VL
# notes: Based on A3 from Wyeth; IgG1 with L234F, L235E, D265A, K409R (FEAR)
# B3: bsIgG1-huCD3-H101G-FEALx5T4-A1-FEAR (bispecific antibody)
# heavy: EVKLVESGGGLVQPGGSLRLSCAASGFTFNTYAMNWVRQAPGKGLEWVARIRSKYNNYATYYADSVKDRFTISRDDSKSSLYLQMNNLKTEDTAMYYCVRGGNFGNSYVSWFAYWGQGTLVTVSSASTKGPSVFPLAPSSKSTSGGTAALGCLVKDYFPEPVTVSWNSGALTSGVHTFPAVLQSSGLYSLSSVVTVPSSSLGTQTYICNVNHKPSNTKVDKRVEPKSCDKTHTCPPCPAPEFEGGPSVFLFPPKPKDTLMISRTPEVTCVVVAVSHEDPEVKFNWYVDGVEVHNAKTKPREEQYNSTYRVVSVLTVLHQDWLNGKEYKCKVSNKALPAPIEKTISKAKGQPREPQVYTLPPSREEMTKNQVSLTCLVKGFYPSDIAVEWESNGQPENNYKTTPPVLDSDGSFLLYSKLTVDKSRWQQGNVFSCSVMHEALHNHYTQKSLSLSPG
# light: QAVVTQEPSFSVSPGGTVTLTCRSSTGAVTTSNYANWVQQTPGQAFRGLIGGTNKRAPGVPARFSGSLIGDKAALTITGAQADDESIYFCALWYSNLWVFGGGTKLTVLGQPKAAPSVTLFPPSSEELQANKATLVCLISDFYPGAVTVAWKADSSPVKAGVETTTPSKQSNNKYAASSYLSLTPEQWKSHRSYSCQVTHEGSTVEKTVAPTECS
# VH: QIQLVQSGPELKKPGETVKISCKASGYTFTNFGMNWVKQGPGEGLKWMGWINTNTGEPRYAEEFKGRFAFSLETTASTAYLQINNLKNEDTATYFCARDWDGAYFFDYWGQGTTLTVSS
# VL: SIVMTQTPKFLLVSAGDRVTITCKASQSVSNDVAWYQQKPGQSPKLLINFATNRYTGVPNRFTGSGYGTDFTFTISTVQAEDLALYFCQQDYSSPWTFGGGTKLEIK
# notes: Fab-arm exchange product
# B4: IgG1-5T4-H8-FEAR (antibody, V domains shown)
# VH: EVQLQQSGPDLVKPGASVKISCKASGYSFTGYYMHWVKQSHGKSLEWIGRINPNNGVTLYNQKFKDKAILTVDKSSTTAYMELRSLTSEDSAVYYCARSTMITNYVMDYWGQVTSVTVSS
# VL: SIVMTQTPTFLLVSAGDRVTITCKASQSVSNDVAWYQQKPGQSPTLLISYTSSRYAGVPDRFIGSGYGTDFTFTISTLQAEDLAVYFCQQDYNSPPTFGGGTKLEIK
# notes: Based on 5T4 antibody H8 from Wyeth (WO 2007/106744); IgG1 with L234F, L235E, D265A, K409R (FEAR); also called IgG1-5T4-HS-FEAR; IgG1-5T4-H8-FEAR-FITC
# B5: bsIgG1-huCD3-H101G-FEALx5T4-076-FEAR (bispecific antibody)
# heavy: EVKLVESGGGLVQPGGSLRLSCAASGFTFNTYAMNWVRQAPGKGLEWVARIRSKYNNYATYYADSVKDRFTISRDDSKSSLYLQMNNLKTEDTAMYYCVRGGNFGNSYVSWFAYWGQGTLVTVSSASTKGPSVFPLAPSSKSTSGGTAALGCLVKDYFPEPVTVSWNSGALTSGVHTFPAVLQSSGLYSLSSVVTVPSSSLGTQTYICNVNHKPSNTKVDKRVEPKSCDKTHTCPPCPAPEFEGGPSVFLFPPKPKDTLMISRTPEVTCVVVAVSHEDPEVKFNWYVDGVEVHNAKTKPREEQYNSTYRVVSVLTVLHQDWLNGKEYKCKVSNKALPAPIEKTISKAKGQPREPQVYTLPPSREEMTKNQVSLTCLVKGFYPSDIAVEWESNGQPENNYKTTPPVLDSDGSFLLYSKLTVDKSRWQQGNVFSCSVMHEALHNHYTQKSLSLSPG
# light: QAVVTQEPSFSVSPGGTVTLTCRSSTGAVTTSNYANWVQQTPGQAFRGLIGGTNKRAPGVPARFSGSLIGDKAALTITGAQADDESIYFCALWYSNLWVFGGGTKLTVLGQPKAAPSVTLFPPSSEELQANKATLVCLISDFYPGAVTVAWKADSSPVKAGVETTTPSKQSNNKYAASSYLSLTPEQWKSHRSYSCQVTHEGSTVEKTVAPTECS
# VH: QVQLVQSGAEVKKPGASVKVSCKASGYTFTSYGISWVRQAPGQGLEWMGWISAYNGNTNYAQKLQGRVTMTTDTSTRTAYMELRSLRSDDTAVYYCARDPGYFDWLYGDYWGQGTLVTVSS
# VL: AIQLTQSPSSLSASVGDRVTITCRASQGISSALAWYQQKPGKAPKLLIYDASSLESGVPSRFSGSGSGTDFTLTISSLQPEDFATYYCQQFNSYPRTFGQGTKVEIK
# notes: Fab-arm exchange product
# B6: IgG1-5T4-076-FEAR (antibody, V domains shown)
# VH: B5 VH
# VL: B5 VL
# notes: Monospecific, bivalent human IgG1 kappa with L234F, L235E, D265A, K409R (FEAR)
# B7: bsIgG1-huCD3-H101G-FEALx5T4-127-FEAR (bispecific antibody)
# heavy: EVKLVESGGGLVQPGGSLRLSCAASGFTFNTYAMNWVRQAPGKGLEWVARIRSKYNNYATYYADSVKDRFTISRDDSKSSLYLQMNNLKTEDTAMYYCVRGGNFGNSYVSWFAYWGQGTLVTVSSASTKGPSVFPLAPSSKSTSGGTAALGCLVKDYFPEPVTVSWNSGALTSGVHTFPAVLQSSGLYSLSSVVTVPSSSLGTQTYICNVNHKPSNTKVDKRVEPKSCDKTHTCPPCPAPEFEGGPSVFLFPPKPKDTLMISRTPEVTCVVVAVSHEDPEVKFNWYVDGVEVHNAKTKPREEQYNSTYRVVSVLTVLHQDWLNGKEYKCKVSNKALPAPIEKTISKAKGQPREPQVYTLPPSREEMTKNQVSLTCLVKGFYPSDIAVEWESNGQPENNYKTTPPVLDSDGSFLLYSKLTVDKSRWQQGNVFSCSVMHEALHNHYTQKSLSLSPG
# light: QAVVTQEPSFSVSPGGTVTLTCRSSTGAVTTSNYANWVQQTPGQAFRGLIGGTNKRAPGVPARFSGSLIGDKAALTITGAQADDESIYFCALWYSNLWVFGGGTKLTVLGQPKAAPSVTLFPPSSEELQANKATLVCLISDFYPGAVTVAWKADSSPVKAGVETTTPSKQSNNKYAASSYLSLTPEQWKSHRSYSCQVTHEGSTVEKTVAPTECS
# VH: EVQLLESRGGLVQPGGSLRLSCAASGFTFSSYAMSWVRQAPGKGLEWVSTISGSGGSTYYADSVKGRFTISRDNSKKTLYLQMNSLRAEDTAVYYCAKDWGSGSYPAEYFQHWGQGTLVTVSS
# VL: EIVLTQSPATLSLSPGERATLSCRASQSVSSYLAWYQQKPGQAPRLLIYDASNRATGIPARFSGSGSGTDFTLTISSLEPEDFAVYYCQQRSNWLMYTFGQGTKLEIK
# notes: Fab-arm exchange product
# B8: IgG1-5T4-A1-F405L (antibody, V domains shown)
# VH: B3 VH
# VL: B3 VL
# notes: Variable region of A1 of WO2007106744 in a human IgG1 backbone with F405L; also called surrogate A1 antibody
# B9: IgG1-5T4-A3-F405L (antibody, V domains shown)
# VH: B1 VH
# VL: B1 VL
# notes: Variable region of A3 of WO2007106744 in a human IgG1 backbone with F405L; also called surrogate A3 antibody
# Experiments:
# [1] = target: T1, full length human 5T4 (SEQ ID NO: 1) on …; assay: flow cytometry, HeLa cells, PE secondary [II)H]
# Experimental: Mono- and bivalent binding of 5T4 antibodies to HeLa cells was determined by flow cytometry. Cells were incubated with increasing concentrations of antibodies. After secondary labelling with Phycoerythrin (PE)-conjugated goat-anti-human IgG F(ab′)2, the mean fluorescence intensity (MFI) was determined by flow cytometry.
# After washing twice in staining buffer, cells were incubated in 50 µL secondary antibody at 4° C. for 30 min. […] Next, cells were washed twice in staining buffer, re-suspended in 120 µL staining buffer and analyzed on a BD LSRFortessa FACS (BD Biosciences, USA). Binding curves were analyzed using non-linear regression (sigmoidal dose-response with variable slope) using GraphPad Prism V7.02 software (GraphPad Software, San Diego, CA, USA).
# [2] = target: T2, full length cynomolgus monkey 5T4 on …; assay: flow cytometry, HEK-293 cells transfected with cynomolgus monkey 5T4, PE secondary [II)I]
# [3] = target: T1, full length human 5T4 (SEQ ID NO: 1) on …; assay: flow cytometry, HeLa cells, PE secondary [II)G]
# [4] = target: T2, full length cynomolgus monkey 5T4 on …; assay: flow cytometry, HEK-293 cells transfected with cynomolgus monkey 5T4, PE secondary [II)H]
# [5] = target: T3, human 5T4ECDHis (mature protein of SEQ …); assay: BLI cross-block; competitor (immobilised): IgG1-5T4-H8-FEAR
# [6] = target: T3, human 5T4ECDHis (mature protein of SEQ …); assay: BLI cross-block; competitor (immobilised): IgG1-5T4-059-FEAR
# Experimental: (§1) Antibody cross-block analysis (epitope binning) was performed using biolayer interferometry on an Octet HTX instrument (ForteBio). 5T4 antibodies (20 µg/mL in 10 mM sodium acetate buffer pH 6.0, ForteBio) were immobilized on Amine-Reactive 2nd Generation (AR2G) biosensors (ForteBio) according to the manufacturer’s instructions. […] Next, the association response of a second 5T4 antibody (10 µg/mL) was determined for 500 s. Biosensors were regenerated by 3 times 5 s exposure to 10 mM glycine pH 2.5 followed by Sample Diluent, and the measurement was repeated with a new set of second 5T4 antibodies starting from the baseline step. Each biosensor was used four times. Measurements were performed at 30° C. using a shaker speed of 1000 rpm. Data were analyzed using Data Analysis Software v9.0.0.12 (ForteBio). The Y-axis was aligned to the association step and Savitzky-Golay filtering was applied. The response of Sample Diluent during the association step was subtracted from the association response of the second antibody in order to correct for the dissociation of 5T4ECDHis from the immobilized antibody. […] In general, responses > 0.1 nm were considered non-blocking antibody pairs (white), while responses between -0.1 and 0.1 nm were considered to be blocking antibody pairs (dark grey). […] In some cases, the data curves needed visual inspection by an expert to assign blocking, non-blocking or displacement properties to antibody pairs.
# [7] = target: T3, human 5T4ECDHis (mature protein of SEQ …); assay: BLI cross-block; competitor (immobilised): IgG1-5T4-076-FEAR
# Experimental: as §1
# [8] = target: T3, human 5T4ECDHis (mature protein of SEQ …); assay: BLI cross-block; competitor (immobilised): IgG1-5T4-085-FEAR
# Experimental: as §1
# [9] = target: T3, human 5T4ECDHis (mature protein of SEQ …); assay: BLI cross-block; competitor (immobilised): IgG1-5T4-106-FEAR
# [10] = target: T3, human 5T4ECDHis (mature protein of SEQ …); assay: BLI cross-block; competitor (immobilised): IgG1-5T4-127-FEAR
# Experimental: as §1
# [11] = target: T3, human 5T4ECDHis (mature protein of SEQ …); assay: BLI cross-block; competitor (immobilised): IgG1-5T4-207-FEAR
# [12] = target: T3, human 5T4ECDHis (mature protein of SEQ …); assay: BLI cross-block; competitor (immobilised): IgG1-5T4-226-FEAR
# [13] = target: T3, human 5T4ECDHis (mature protein of SEQ …); assay: BLI cross-block; competitor (immobilised): IgG1-5T4-A1-F405L
# Experimental: as §1
# [14] = target: T3, human 5T4ECDHis (mature protein of SEQ …); assay: BLI cross-block; competitor (immobilised): IgG1-5T4-A3-F405L
# [15] = target: T3, human 5T4ECDHis (mature protein of SEQ …); assay: BLI, antibody on anti-human IgG Fc Capture biosensor, antigen in solution
# Experimental: Affinities of the 5T4 antibodies for recombinant 5T4 protein were determined using label-free biolayer interferometry on an Octet HTX instrument (ForteBio, Portsmouth, UK). 5T4 antibodies (1 µg/mL) were immobilized for 600 seconds on anti-human IgG Fc Capture biosensors (ForteBio). […] Data were analyzed with Data Analysis Software v9.0.0.12 (ForteBio). Values of reference wells containing only Sample Diluent during the association and dissociation steps were subtracted from values of wells containing antigen, for each antibody separately. The Y-axis was aligned to the last 10 s of the baseline and Interstep Correction alignment to dissociation as well as Savitzky-Golay filtering was applied. Responses < 0.05 nm were excluded from analysis. The data were fitted using the 1:1 model and a global full fit with 200 s association time and 1000 s or 50 s dissociation time as Window of Interest. The fit with the full dissociation time (1000 s) as Window of Interest was used by default.
# [16] = target: T1, full length human 5T4 (SEQ ID NO: 1) on …; assay: flow cytometry, HEK-293 cells transfected with human 5T4, FITC secondary [I)D]
# Experimental: Experiments were performed in technical duplicate. After washing twice in staining buffer, cells were incubated in 50 µL secondary antibody at 4° C. for 30 min. […] Cells were washed twice in staining buffer, re-suspended in 30 µL staining buffer and analyzed on an iQue Screener (Intellicyt Corporation, USA). Binding curves were analyzed using non-linear regression (sigmoidal dose-response with variable slope) using GraphPad Prism V7.02 software (GraphPad Software, San Diego, CA, USA).
# [17] = target: T1, full length human 5T4 (SEQ ID NO: 1) on …; assay: flow cytometry, HEK-293 cells transfected with human 5T4, PE secondary [II)E]
# [18] = target: T2, full length cynomolgus monkey 5T4 on …; assay: flow cytometry, HEK-293 cells transfected with cynomolgus monkey 5T4, PE secondary [II)E]
# [19] = target: T2, full length cynomolgus monkey 5T4 on …; assay: flow cytometry, HEK-293 cells transfected with cynomolgus monkey 5T4, PE secondary [II)G]
Binder,corrected association response [5] [nm],corrected association response [6] [nm],corrected association response [7] [nm],corrected association response [8] [nm],corrected association response [9] [nm],corrected association response [10] [nm],corrected association response [11] [nm],corrected association response [12] [nm],corrected association response [13] [nm],corrected association response [14] [nm],also measured
B1,–,–,–,–,–,–,–,–,–,–,binding result [1]: binds; binding result [2]: binds
B2,–,–,–,–,–,–,–,–,–,–,binding result [1]: binds; EC50 (read off the curve) [2]: ~0.1 µg/mL
B3,–,–,–,–,–,–,–,–,–,–,binding result [3]: binds; binding result [4]: binds
B4,0,0.01,0,-0.01,-0.02,-0.02,-0.01,-0.01,0.89,0.5,Kd [15]: 1.3 nM; koff [15]: 0.00029 s⁻¹; kon [15]: 220000 M⁻¹ s⁻¹; EC50 (read off the curve) [16]: ~0.1 µg/mL
B5,–,–,–,–,–,–,–,–,–,–,binding result [17]: binds; EC50 (read off the curve) [18]: ~0.4 µg/mL
B6,-0.02,0,-0.01,-0.01,-0.03,-0.02,1.22,1.47,0.36,0,EC50 (read off the curve) [17]: ~0.3 µg/mL; EC50 (read off the curve) [18]: ~0.008 µg/mL
B7,–,–,–,–,–,–,–,–,–,–,EC50 (read off the curve) [19]: ~0.1 µg/mL
B8,0.64,0.96,0.04,0.07,0.79,0.15,1.29,1.56,-0.01,0.69,–
B9,0.49,–,0,-0.01,0.56,-0.01,–,–,0.76,0.01,–
